Laboratory results taken from ChEMBL document CHEMBL2073968, “Multidrug resistance protein 4 (MRP4/ABCC4) mediates efflux of bimane-glutathione” (Int J Biochem Cell Biol, 2004).

Substrate: [H][C@@]12CC=C3C[C@@H](OS(=O)(=O)O)CC[C@]3(C)[C@@]1([H])CC[C@]1(C)C(=O)CC[C@@]21[H]
Assay: TP_TRANSPORTER: uptake in membrane vesicles from MRP1-expressing Sf9 cells
Type: functional, cell membranes, Membrane vesicle

B1: Multidrug resistance-associated protein 1 (Homo sapiens) (protein)
chain: MALRGFCSADGSDPLWDWNVTWNTSNPDFTKCFQNTVLVWVPCFYLWACFPFYFLYLSRHDRGYIQMTPLNKTKTALGFLLWIVCWADLFYSFWERSRGIFLAPVFLVSPTLLGITMLLATFLIQLERRKGVQSSGIMLTFWLVALVCALAILRSKIMTALKEDAQVDLFRDITFYVYFSLLLIQLVLSCFSDRSPLFSETIHDPNPCPESSASFLSRITFWWITGLIVRGYRQPLEGSDLWSLNKEDTSEQVVPVLVKNWKKECAKTRKQPVKVVYSSKDPAQPKESSKVDANEEVEALIVKSPQKEWNPSLFKVLYKTFGPYFLMSFFFKAIHDLMMFSGPQILKLLIKFVNDTKAPDWQGYFYTVLLFVTACLQTLVLHQYFHICFVSGMRIKTAVIGAVYRKALVITNSARKSSTVGEIVNLMSVDAQRFMDLATYINMIWSAPLQVILALYLLWLNLGPSVLAGVAVMVLMVPVNAVMAMKTKTYQVAHMKSKDNRIKLMNEILNGIKVLKLYAWELAFKDKVLAIRQEELKVLKKSAYLSAVGTFTWVCTPFLVALCTFAVYVTIDENNILDAQTAFVSLALFNILRFPLNILPMVISSIVQASVSLKRLRIFLSHEELEPDSIERRPVKDGGGTNSITVRNATFTWARSDPPTLNGITFSIPEGALVAVVGQVGCGKSSLLSALLAEMDKVEGHVAIKGSVAYVPQQAWIQNDSLRENILFGCQLEEPYYRSVIQACALLPDLEILPSGDRTEIGEKGVNLSGGQKQRVSLARAVYSNADIYLFDDPLSAVDAHVGKHIFENVIGPKGMLKNKTRILVTHSMSYLPQVDVIIVMSGGKISEMGSYQELLARDGAFAEFLRTYASTEQEQDAEENGVTGVSGPGKEAKQMENGMLVTDSAGKQLQRQLSSSSSYSGDISRHHNSTAELQKAEAKKEETWKLMEADKAQTGQVKLSVYWDYMKAIGLFISFLSIFLFMCNHVSALASNYWLSLWTDDPIVNGTQEHTKVRLSVYGALGISQGIAVFGYSMAVSIGGILASRCLHVDLLHSILRSPMSFFERTPSGNLVNRFSKELDTVDSMIPEVIKMFMGSLFNVIGACIVILLATPIAAIIIPPLGLIYFFVQRFYVASSRQLKRLESVSRSPVYSHFNETLLGVSVIRAFEEQERFIHQSDLKVDENQKAYYPSIVANRWLAVRLECVGNCIVLFAALFAVISRHSLSAGLVGLSVSYSLQVTTYLNWLVRMSSEMETNIVAVERLKEYSETEKEAPWQIQETAPPSSWPQVGRVEFRNYCLRYREDLDFVLRHINVTINGGEKVGIVGRTGAGKSSLTLGLFRINESAEGEIIIDGINIAKIGLHDLRFKITIIPQDPVLFSGSLRMNLDPFSQYSDEEVWTSLELAHLKDFVSALPDKLDHECAEGGENLSVGQRQLVCLARALLRKTKILVLDEATAAVDLETDDLIQSTIRTQFEDCTVLTIAHRLNTIMDYTRVIVLDKGEIQEYGAPSDLLQQRGLFYSMAKDAGLV
For B1, the Km was 5 µM.
